We go through two sequences from paper PMC11508082.

The target in the series is T1, PdhR-his (Escherichia coli O157:H7 (EHEC) TUV93-0?) (UniProt P0ACM1).
T1 sequence: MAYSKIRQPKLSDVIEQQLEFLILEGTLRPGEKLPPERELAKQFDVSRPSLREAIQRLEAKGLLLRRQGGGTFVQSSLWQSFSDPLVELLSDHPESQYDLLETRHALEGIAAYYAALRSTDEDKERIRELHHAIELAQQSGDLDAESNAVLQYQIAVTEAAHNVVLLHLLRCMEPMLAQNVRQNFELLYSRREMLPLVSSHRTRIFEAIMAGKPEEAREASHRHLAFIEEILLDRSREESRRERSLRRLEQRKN
Kind of series: EMSA. (In general: A gel shift assay detects complexes by their altered migration in electrophoresis.)

Take “GGTTCCGATAGAAAGTCCTGGAACAACCGGACCAAAAAGAAAAACCTACCGAGTTGGTAATGGTATTGTGGGACAGTCTAATATCTGGAACGAAATGATCATGAGGCGGAAAAAGGAGAGTTA (double strand) [grlA promoter probe]”: the binding result was “no binding”.
The result for “TGTGCACAGTTTCATGATTTCAATCAAAACCTGTATGGACATAAGGTGAATACTTTGTTACTTTAGCGTCACAGACATGAAATTGGTAAGACCAATTGACTTCGGCAAGTGGCTTAAGACAGGAACTCATGGCCTACAGCAAAATCCGCCAACCAAAACTCTCCGATGTGATTGAGCAGC (double strand) [PpdhR promoter probe]” reads “binds”.
